From patent US20170267738A1 (published 2017)

T1: MAGEA4 (peptide MAG-003) peptide on HLA-A*02:01 (human)
T1 peptide: KVLEHVVRV

T2: AXIN1 (peptide AXIN1-001) peptide on HLA-A*02:01 (human)
T2 peptide: ILDEHVQRV

T3: MAGEA4 (MAG-003 A9, alanine at position 9; same residues as SEQ ID NO: 3) peptide on HLA-A*02:01 (human)
T3 peptide: KVLEHVVRA

T4: PSME2 (peptide PSME2-001) peptide on HLA-A*02:01 (human)
T4 peptide: KVLERVNAV

T5: ANO5 (peptide ANO5-001) peptide on HLA-A*02:01 (human)
T5 peptide: IVMEHVVFL

T6: HERC4 (peptide HERC4-001) peptide on HLA-A*02:01 (human)
T6 peptide: KVLEILHRV

T7: CNOT1 (peptide CNOT1-003) peptide on HLA-A*02:01 (human)
T7 peptide: KVLGIVVGV

T8: TPX2 (peptide TPX2-001) peptide on HLA-A*02:01 (human)
T8 peptide: KILEDVVGV

T9: SYNE3 (peptide SYNE3-001) peptide on HLA-A*02:01 (human)
T9 peptide: KLLDLQVRV

T10: MAGEA4 (MAG-003 A6, alanine at position 6) peptide on HLA-A*02:01 (human)
T10 peptide: KVLEHAVRV

T11: MAGEA4 (MAG-003 A7, alanine at position 7) peptide on HLA-A*02:01 (human)
T11 peptide: KVLEHVARV

T12: HEATR5A (peptide HEATR5A-001) peptide on HLA-A*02:01 (human)
T12 peptide: KVLETLVTV

T13: MIA3 (peptide MIA3-001) peptide on HLA-A*02:01 (human)
T13 peptide: KVLDKVFRA

T14: RABGAP1L (peptide RABGAP1L-001) peptide on HLA-A*02:01 (human)
T14 peptide: FLLETVVRV

T15: MAGEA4 (MAG-003 A2, alanine at position 2; same residues as SEQ ID NO: 9) peptide on HLA-A*02:01 (human)
T15 peptide: KALEHVVRV

B1: R10P2G12 (TCR, V domains shown)
Valpha: AQKVTQAQTEISVVEKEDVTLDCVYETRDTTYYLFWYKQPPSGELVFLIRRNSFDEQNEISGRYSWNFQKSTSSFNFTITASQVVDSAVYFCALSEGNSGNTPLVFGKGTRLSVIA
Vbeta: DVKVTQSSRYLVKRTGEKVFLECVQDMDHENMFWYRQDPGLGLRLIYFSYDVKMKEKGDIPEGYSVSREKKERFSLILESASTNQTSMYLCASSLSSGSHQETQYFGPGTRLLVL
B2: R20P1H7 (TCR, V domains shown)
Valpha: EDQVTQSPEALRLQEGESSSLNCSYTVSGLRGLFWYRQDPGKGPEFLFTLYSAGEEKEKERLKATLTKKESFLHITAPKPEDSATYLCAVQGENSGYSTLTFGKGTMLLVSP
Vbeta: EAQVTQNPRYLITVTGKKLTVTCSQNMNHEYMSWYRQDPGLGLRQIYYSMNVEVTDKGDVPEGYKVSRKEKRNFPLILESPSPNQTSLYFCASSLGPGLAAYNEQFFGPGTRLTVL

Legend:
[1] = target: T1, MAGEA4 (peptide MAG-003) peptide on …; experiment: multimer staining
[2] = target: T2, AXIN1 (peptide AXIN1-001) peptide on …; experiment: cytokine release
[3] = target: T3, MAGEA4 (MAG-003 A9, alanine at position …); experiment: cytokine release
[4] = target: T4, PSME2 (peptide PSME2-001) peptide on …; experiment: cytokine release
[5] = target: T5, ANO5 (peptide ANO5-001) peptide on …; experiment: cytokine release
[6] = target: T6, HERC4 (peptide HERC4-001) peptide on …; experiment: cytokine release
[7] = target: T7, CNOT1 (peptide CNOT1-003) peptide on …; experiment: cytokine release
[8] = target: T8, TPX2 (peptide TPX2-001) peptide on …; experiment: cytokine release
[9] = target: T9, SYNE3 (peptide SYNE3-001) peptide on …; experiment: cytokine release
[10] = target: T10, MAGEA4 (MAG-003 A6, alanine at position …); experiment: cytokine release
[11] = target: T11, MAGEA4 (MAG-003 A7, alanine at position …); experiment: cytokine release
[12] = target: T12, HEATR5A (peptide HEATR5A-001) peptide …; experiment: cytokine release
[13] = target: T13, MIA3 (peptide MIA3-001) peptide on …; experiment: cytokine release
[14] = target: T14, RABGAP1L (peptide RABGAP1L-001) peptide …; experiment: cytokine release
[15] = target: T15, MAGEA4 (MAG-003 A2, alanine at position …); experiment: cytokine release

| binding result [1] | binding result [2] | binding result [3] | binding result [4] | binding result [5] | binding result [6] | binding result [7] | binding result [8] | binding result [9] | binding result [10] | binding result [11] | binding result [12] | binding result [13] | binding result [14] | binding result [15] | Binder |
| --- | --- | --- | --- | --- | --- | --- | --- | --- | --- | --- | --- | --- | --- | --- | --- |
| recognises | no recognition | recognises | no recognition | no recognition | no recognition | no recognition | no recognition | no recognition | recognises | recognises | no recognition | no recognition | no recognition | – | B1 |
| recognises | no recognition | recognises | no recognition | no recognition | no recognition | no recognition | no recognition | no recognition | recognises | – | no recognition | no recognition | no recognition | recognises | B2 |
